{"source": "paper PMC7038996", "binders": {"B1": {"name": "dsDNA-SSB (dsDNA)", "DNA 1": "TCGGTACCCGGGGATCCTCTAGAGTCGACC", "DNA 2": "TGCAGGCATGCAAGCTTGGCGTAATCATGGTCATAGCTGT", "DNA 3": "ACAGCTATGACCATGATTACGCCAAGCTTGCATGCCTGCAGGTCGACTCTAGAGGATCCCCGGGTACCGA", "modifications": "nick between nt 30 and 31 of S1 (Nt.BstNBI, …^); CIP-treated"}, "B2": {"name": "biotin-dsDNA-SSB (dsDNA)", "DNA 1": "B1 DNA 1", "DNA 2": "B1 DNA 2", "DNA 3": "B1 DNA 3", "modifications": "nick by Nt.BstNBI; CIP-treated"}, "B3": {"name": "dsDNA (70 bp) (dsDNA)", "DNA 1": "TCGGTACCCGGGGATCCTCTAGAGTCGACCTGCAGGCATGCAAGCTTGGCGTAATCATGGTCATAGCTGT", "DNA 2": "B1 DNA 3"}, "B4": {"name": "biotin-dsDNA (dsDNA)", "DNA 1": "B3 DNA 1", "DNA 2": "B1 DNA 3"}}, "key": {"GST-APE1 DA": {"molecular_target": "T1, GST-APE1 DA (Xenopus laevis, UniProt Q6IP62 1-316, D306A)", "T1 sequence": "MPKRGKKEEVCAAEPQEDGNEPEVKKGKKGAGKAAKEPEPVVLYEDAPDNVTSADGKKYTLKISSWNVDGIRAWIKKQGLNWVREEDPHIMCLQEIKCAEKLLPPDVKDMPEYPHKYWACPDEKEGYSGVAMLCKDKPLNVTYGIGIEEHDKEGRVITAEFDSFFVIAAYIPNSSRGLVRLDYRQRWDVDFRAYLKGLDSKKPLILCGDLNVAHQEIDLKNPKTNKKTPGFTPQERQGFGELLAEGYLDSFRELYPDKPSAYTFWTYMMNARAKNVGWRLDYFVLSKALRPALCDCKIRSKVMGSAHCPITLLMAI", "assay": "EMSA"}, "GST-APE1 CA": {"molecular_target": "T2, GST-APE1 CA (Xenopus laevis, UniProt Q6IP62 1-316, C92A;C98A)", "T2 sequence": "T1 sequence with C92A, C98A, A306D", "assay": "EMSA"}, "GST-APE1 F264Y": {"molecular_target": "T3, GST-APE1 F264Y (Xenopus laevis, UniProt Q6IP62 1-316, F264Y)", "T3 sequence": "T1 sequence with F264Y, A306D", "assay": "EMSA"}, "GST-APE1 F264L": {"molecular_target": "T4, GST-APE1 F264L (Xenopus laevis, UniProt Q6IP62 1-316, F264L)", "T4 sequence": "T1 sequence with F264L, A306D", "assay": "EMSA"}, "GST-APE1 WT [1]": {"molecular_target": "T5, GST-APE1 WT (Xenopus laevis, UniProt Q6IP62 1-316)", "T5 sequence": "T1 sequence with A306D", "assay": "EMSA"}, "Myc-APE2": {"molecular_target": "T6, Myc-APE2 (UniProt Q6DDT4 1-517)", "T6 sequence": "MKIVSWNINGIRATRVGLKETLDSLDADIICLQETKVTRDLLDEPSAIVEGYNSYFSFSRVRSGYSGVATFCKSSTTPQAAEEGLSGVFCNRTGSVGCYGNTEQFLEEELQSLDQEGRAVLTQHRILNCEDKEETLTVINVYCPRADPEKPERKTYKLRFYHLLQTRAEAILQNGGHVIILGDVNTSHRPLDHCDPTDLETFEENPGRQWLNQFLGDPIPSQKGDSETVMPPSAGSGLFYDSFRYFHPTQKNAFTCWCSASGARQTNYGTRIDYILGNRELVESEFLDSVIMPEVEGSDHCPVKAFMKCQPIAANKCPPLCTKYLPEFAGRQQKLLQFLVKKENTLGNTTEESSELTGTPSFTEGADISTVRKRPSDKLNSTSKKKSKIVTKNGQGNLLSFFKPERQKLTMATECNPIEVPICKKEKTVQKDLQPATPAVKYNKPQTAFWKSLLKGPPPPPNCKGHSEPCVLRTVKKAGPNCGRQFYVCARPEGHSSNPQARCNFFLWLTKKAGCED", "assay": "pull-down"}, "GST-APE1 WT [2]": {"molecular_target": "T5, GST-APE1 WT", "assay": "EMSA", "remark": "listed apart in the source"}}, "note": "Where a chain is given by its changes, count along the chain named. Read-outs that look alike come from different tables or passages of the source.", "data": [{"binder": "B1", "values": [{"measurement": "binding result", "setting": "GST-APE1 DA", "result": "no binding"}, {"measurement": "binding result", "setting": "GST-APE1 CA", "result": "no binding"}, {"measurement": "binding result", "setting": "GST-APE1 F264Y", "result": "no binding"}, {"measurement": "binding result", "setting": "GST-APE1 F264L", "result": "no binding"}, {"measurement": "binding result", "setting": "GST-APE1 WT [1]", "result": "binds"}]}, {"binder": "B2", "values": [{"measurement": "binding result", "setting": "Myc-APE2", "result": "binds"}]}, {"binder": "B3", "values": [{"measurement": "binding result", "setting": "GST-APE1 WT [2]", "result": "no binding"}]}, {"binder": "B4", "values": [{"measurement": "binding result", "setting": "Myc-APE2", "result": "no binding"}]}]}
